Results: US6703362 (CYTOGEN, dated 2004)

Columns and labels:
[1] = biological target: T1, hPEPT1 receptor domain (human PEPT1, amino acid residues 391-571), His-tag fusion protein (human, UniProt P46059 391-571); assay: phage ELISA, plate coated with hPEPT1 domain
T1 construct: purified under denaturing conditions; also called recombinant hPEPT1; not shown: poly-histidine tag (pET vector) at the NH2-terminal end
T1 sequence: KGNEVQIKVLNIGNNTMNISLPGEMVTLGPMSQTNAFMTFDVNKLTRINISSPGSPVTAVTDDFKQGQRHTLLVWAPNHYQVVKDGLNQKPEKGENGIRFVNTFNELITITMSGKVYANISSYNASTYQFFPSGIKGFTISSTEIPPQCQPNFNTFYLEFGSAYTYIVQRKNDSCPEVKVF
Protocol: (§1) 6.6. Receptor ELISA Procedure 96 well plates were coated overnight with GIT receptor, BSA and, optionally, IDE (insulin degrading enzyme, an irrelevant His-fusion protein)or hTF. The plates were blocked for one hour with 0.5% BSA-PBS. After clarification, the amplified phage were diluted 1:100 in […] plus 0.05% Tween 20 in PBS and added to the plates. Following incubation of the plates on a rotator for 1 to 2 hours, the plates were washed 5 times with 1% BSA plus 0.05% Tween 20 in PBS. […] After the plates were washed 5 times, as described above, TMB substrate was added to the wells. The plates were read at 650 nm absorbance.

[2] = biological target: T1, hPEPT1 receptor domain (human PEPT1, …); assay: phage ELISA, OD on hPEPT1 over OD on BSA
Protocol: as §1

[3] = biological target: T2, HPT1 receptor domain (human intestinal peptide-associated transporter HPT1, amino acid residues 29-273), … (human, UniProt Q12864 29-273); assay: phage ELISA, OD on HPT1 over OD on BSA
T2 construct: purified under denaturing conditions; also called recombinant HPT1; not shown: poly-histidine tag (pET vector) at the NH2-terminal end
T2 sequence: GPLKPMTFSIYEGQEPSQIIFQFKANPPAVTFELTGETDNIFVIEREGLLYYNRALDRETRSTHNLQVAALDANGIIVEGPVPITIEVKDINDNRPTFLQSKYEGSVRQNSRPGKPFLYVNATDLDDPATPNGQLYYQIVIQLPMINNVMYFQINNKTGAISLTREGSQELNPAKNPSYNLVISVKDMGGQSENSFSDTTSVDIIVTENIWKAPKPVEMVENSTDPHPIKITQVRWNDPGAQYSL
Protocol: as §1

[4] = biological target: T2, HPT1 receptor domain (human intestinal …); assay: phage ELISA, plate coated with HPT1 domain
Protocol: as §1

[5] = biological target: T3, D2H receptor domain (human D2H transporter, amino acid residues 387-685), His-tag fusion protein (human, UniProt Q07837 387-685); assay: phage ELISA, plate coated with D2H domain
T3 construct: purified under denaturing conditions; also called recombinant D2H; not shown: poly-histidine tag (pET vector) at the NH2-terminal end
T3 sequence: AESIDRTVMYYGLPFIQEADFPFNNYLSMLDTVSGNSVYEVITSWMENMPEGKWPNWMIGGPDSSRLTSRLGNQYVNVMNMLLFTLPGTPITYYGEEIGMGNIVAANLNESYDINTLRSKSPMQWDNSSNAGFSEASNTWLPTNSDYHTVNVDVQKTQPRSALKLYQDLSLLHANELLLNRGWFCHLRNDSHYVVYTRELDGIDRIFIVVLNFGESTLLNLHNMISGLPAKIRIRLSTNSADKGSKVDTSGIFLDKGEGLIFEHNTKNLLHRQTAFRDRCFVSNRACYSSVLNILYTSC
Protocol: as §1
Binding to fixed Caco-2 cells, D2H and BSA was examined.

B1: P31 (peptide)
peptide: SARDSGPAEDGSRAVRLNGVENANTRKSSRSNPRGRRHPAETVESCLAKPHTENSFTNVWKDDKTLDRYANYEGCLWNATGVVVCTGDETQCYGTWVPIGLAIPENEGGGSEGGGSEGGGSEGGGTKPPEYGDTPIPGYTYINPLDGTYPPGTEQNPANPNPSLEESQPLNTFMFQNNRFRNRQGALTVYTGTVTQGTDPVKTYYQYTPVSSKAMYDAYWNGKFRDCAFHSGFNEDPFVCEYQGQSSDLPQPPVNAGGGSGGGSGGGSEGGGSEGGGSEGGGSEGGGSGGGSGSGDFDYEKMANANKGAMTENADENALQSDAKGKLDSVATDYGAAIDGFIGDVSGLANGNGATGDFAGSNSQMAQVGDGDNSPLMNNFRQYLPSLPQSVECRPFVFSAGKPYEFSIDCDKINLFRGVFAFLLYVATFMYVFSTFANILRNKES
notes: Assayed as M13 phage clone displaying the insert
- OD [1]: 0.807 OD
- PEPT1/BSA [2]: 11 ratio

B2: P90 (peptide)
peptide: SSADAEKCAGSLLWWGRQNNSGCGSPTKKHLKHRNRSQTSSSSHAETVESCLAKPHTENSFTNVWKDDKTLDRYANYEGCLWNATGVVVCTGDETQCYGTWVPIGLAIPENEGGGSEGGGSEGGGSEGGGTKPPEYGDTPIPGYTYINPLDGTYPPGTEQNPANPNPSLEESQPLNTFMFQNNRFRNRQGALTVYTGTVTQGTDPVKTYYQYTPVSSKAMYDAYWNGKFRDCAFHSGFNEDPFVCEYQGQSSDLPQPPVNAGGGSGGGSGGGSEGGGSEGGGSEGGGSEGGGSGGGSGSGDFDYEKMANANKGAMTENADENALQSDAKGKLDSVATDYGAAIDGFIGDVSGLANGNGATGDFAGSNSQMAQVGDGDNSPLMNNFRQYLPSLPQSVECRPFVFSAGKPYEFSIDCDKINLFRGVFAFLLYVATFMYVFSTFANILRNKES
notes: as for B1
- OD [1]: 1.12 OD
- PEPT1/BSA [2]: 9 ratio

B3: 5PAX5 (peptide)
peptide: RGSTGTAGGERSGVLNLHTRDNASGSGFKPWYPSNRGHKAETVESCLAKPHTENSFTNVWKDDKTLDRYANYEGCLWNATGVVVCTGDETQCYGTWVPIGLAIPENEGGGSEGGGSEGGGSEGGGTKPPEYGDTPIPGYTYINPLDGTYPPGTEQNPANPNPSLEESQPLNTFMFQNNRFRNRQGALTVYTGTVTQGTDPVKTYYQYTPVSSKAMYDAYWNGKFRDCAFHSGFNEDPFVCEYQGQSSDLPQPPVNAGGGSGGGSGGGSEGGGSEGGGSEGGGSEGGGSGGGSGSGDFDYEKMANANKGAMTENADENALQSDAKGKLDSVATDYGAAIDGFIGDVSGLANGNGATGDFAGSNSQMAQVGDGDNSPLMNNFRQYLPSLPQSVECRPFVFSAGKPYEFSIDCDKINLFRGVFAFLLYVATFMYVFSTFANILRNKES
notes: as for B1
- OD [1]: 0.15 OD
- PEPT1/BSA [2]: 4 ratio

B4: HAX9 (peptide)
peptide: SREEANWDGYKREMSHRSRFWDATHLSRPRRPANSGDPNAETVESCLAKPHTENSFTNVWKDDKTLDRYANYEGCLWNATGVVVCTGDETQCYGTWVPIGLAIPENEGGGSEGGGSEGGGSEGGGTKPPEYGDTPIPGYTYINPLDGTYPPGTEQNPANPNPSLEESQPLNTFMFQNNRFRNRQGALTVYTGTVTQGTDPVKTYYQYTPVSSKAMYDAYWNGKFRDCAFHSGFNEDPFVCEYQGQSSDLPQPPVNAGGGSGGGSGGGSEGGGSEGGGSEGGGSEGGGSGGGSGSGDFDYEKMANANKGAMTENADENALQSDAKGKLDSVATDYGAAIDGFIGDVSGLANGNGATGDFAGSNSQMAQVGDGDNSPLMNNFRQYLPSLPQSVECRPFVFSAGKPYEFSIDCDKINLFRGVFAFLLYVATFMYVFSTFANILRNKES
notes: as for B1
- HPT/BSA [3]: 5 ratio
- OD [4]: 0.382 OD

B5: HAX40 (peptide)
peptide: REFAERRLWGCDDLSWRLDAEGCGPTPSNRAVKHRKPRPRSPALAETVESCLAKPHTENSFTNVWKDDKTLDRYANYEGCLWNATGVVVCTGDETQCYGTWVPIGLAIPENEGGGSEGGGSEGGGSEGGGTKPPEYGDTPIPGYTYINPLDGTYPPGTEQNPANPNPSLEESQPLNTFMFQNNRFRNRQGALTVYTGTVTQGTDPVKTYYQYTPVSSKAMYDAYWNGKFRDCAFHSGFNEDPFVCEYQGQSSDLPQPPVNAGGGSGGGSGGGSEGGGSEGGGSEGGGSEGGGSGGGSGSGDFDYEKMANANKGAMTENADENALQSDAKGKLDSVATDYGAAIDGFIGDVSGLANGNGATGDFAGSNSQMAQVGDGDNSPLMNNFRQYLPSLPQSVECRPFVFSAGKPYEFSIDCDKINLFRGVFAFLLYVATFMYVFSTFANILRNKES
notes: Assayed as M13 phage clone displaying the insert; also called H44
- HPT/BSA [3]: 15 ratio
- OD [4]: 0.991 OD

B6: HAX42 (peptide)
peptide: SDHALGTNLRSDNAKEPGDYNCCGNGNSTGRKVFNRRRPSAIPTAETVESCLAKPHTENSFTNVWKDDKTLDRYANYEGCLWNATGVVVCTGDETQCYGTWVPIGLAIPENEGGGSEGGGSEGGGSEGGGTKPPEYGDTPIPGYTYINPLDGTYPPGTEQNPANPNPSLEESQPLNTFMFQNNRFRNRQGALTVYTGTVTQGTDPVKTYYQYTPVSSKAMYDAYWNGKFRDCAFHSGFNEDPFVCEYQGQSSDLPQPPVNAGGGSGGGSGGGSEGGGSEGGGSEGGGSEGGGSGGGSGSGDFDYEKMANANKGAMTENADENALQSDAKGKLDSVATDYGAAIDGFIGDVSGLANGNGATGDFAGSNSQMAQVGDGDNSPLMNNFRQYLPSLPQSVECRPFVFSAGKPYEFSIDCDKINLFRGVFAFLLYVATFMYVFSTFANILRNKES
notes: as for B1
- HPT/BSA [3]: 5 ratio
- OD [4]: 0.32 OD

B7: HCA3 (peptide)
peptide: RHISEYSFANSHLMGGESKRKGCGINGSFSPTCPRSPTPAFRRTAETVESCLAKPHTENSFTNVWKDDKTLDRYANYEGCLWNATGVVVCTGDETQCYGTWVPIGLAIPENEGGGSEGGGSEGGGSEGGGTKPPEYGDTPIPGYTYINPLDGTYPPGTEQNPANPNPSLEESQPLNTFMFQNNRFRNRQGALTVYTGTVTQGTDPVKTYYQYTPVSSKAMYDAYWNGKFRDCAFHSGFNEDPFVCEYQGQSSDLPQPPVNAGGGSGGGSGGGSEGGGSEGGGSEGGGSEGGGSGGGSGSGDFDYEKMANANKGAMTENADENALQSDAKGKLDSVATDYGAAIDGFIGDVSGLANGNGATGDFAGSNSQMAQVGDGDNSPLMNNFRQYLPSLPQSVECRPFVFSAGKPYEFSIDCDKINLFRGVFAFLLYVATFMYVFSTFANILRNKES
notes: as for B1
- HPT1/BSA [3]: 1 ratio

B8: DCX45 (peptide)
peptide: SVGNDKTSRPVSFYGRVSDLWNASLMPKRTPSSKRHDDGAETVESCLAKPHTENSFTNVWKDDKTLDRYANYEGCLWNATGVVVCTGDETQCYGTWVPIGLAIPENEGGGSEGGGSEGGGSEGGGTKPPEYGDTPIPGYTYINPLDGTYPPGTEQNPANPNPSLEESQPLNTFMFQNNRFRNRQGALTVYTGTVTQGTDPVKTYYQYTPVSSKAMYDAYWNGKFRDCAFHSGFNEDPFVCEYQGQSSDLPQPPVNAGGGSGGGSGGGSEGGGSEGGGSEGGGSEGGGSGGGSGSGDFDYEKMANANKGAMTENADENALQSDAKGKLDSVATDYGAAIDGFIGDVSGLANGNGATGDFAGSNSQMAQVGDGDNSPLMNNFRQYLPSLPQSVECRPFVFSAGKPYEFSIDCDKINLFRGVFAFLLYVATFMYVFSTFANILRNKES
notes: as for B1
- OD [5]: 0.336 OD
